In the DeepSol protein solubility set:

Test: soluble on expression in E. coli; label from the status in PepcDB or PDB records

Sequence	soluble on expression in E. coli
MAGDPMLNSFKLSLQYILPKLWLTRLAGWGASKRAGWLTKLVIDLFVKYYKVDMTEAQKPDTASYRTFNDFFVRPLRDDVRPLNTDPNILVMPADGVISQLGRIEEDKILQAKGHNYSLEALLAGNYLMADKFRNGTFVTTYLSPRDYHRVHMPCNGILREMIYVPGDLFSVNHLTAQNVPNLFARNERVICLFDTEFGPMAQILVGATIVGSIETVWAGTITPPREGIIKRWTWPEGEHEGSVALLKGQEMGRFKLGSTVINLFAPGKVNLIASLASLSVTKIGQPLATSTETFVAPEVEPAPLPAEEIKAEHDASPLVDNKKDDTLEHHHHHH	soluble
MWRIELKHAVNWELKMKFFVLPELPTPDVVESGVWRRAIVLDGRAVAVMAYPESERTIVVEGNFENREWEAVRRKLVEYLGLQNPEELYRFMDGDEKLRMLKNRFYGFGRAGLMSMSVFEGIAKAIIQQQISFVVAEKLAAKIVGRFGDEVEWNGLKFYGFPTQEAILKAGVEGLRECGLSRRKAELIVEIAKEENLEELKEWGEEEAYEYLTSFKGIGRWTAELVLSIALGKNVFPADDLGVRRAVSRLYFNGEIQSAEKVREIARERFGRFARDILFYLFLYDRFFSKKTELV	soluble
MSLTAYMDHKNLANEVIDDARAREITDGVHRVLDRIAAAEEQAGREAGSVRLLAATKTRDIGEIMAAIDAGVRMIGENRPQEVTAKAEGLARRCAERGFSLGVAGAAPDAAAEHIPFHLIGQLQSNKIGKVLPVVDTIESVDSIDLAEKISRRAVARGITVGVLLEVNESGEESKSGCDPAHAIRIAQKIGTLDGIELQGLMTIGAHVHDETVIRRGFSHLRKTRDLILASGEPGTDRCRELSMGMTGDMELAIAEGSTIVRVGTAIFGERAFIEGHHHHHH	soluble
MSLGRRAAIYARYSTELQDGRSIDDQVALCREHAARSGLTVVATYDDRAKTSASIFGRDGLARMMEQARARQFDVVIVEALDRLSRDQEDLAHIHKRLSFARIDILTVHEGVADSVSVGLRGLMGTMFLEALKAKTRRGLAGVIRDGRHAGGQTYGYRGVPGEPGKREIVAHEAEIIREIFAAYVEGKSPRTIAGELNARGIAAPRGPKWNASTLNGNPQRGYGILRNPMYDGRLVWNRVTMVRDPDTGRRVNRENPLDARQEVEAEHLRIVPRPLFEAAVRRHAQQAEAVRTGKITKAPPRPFSGLIRCACCGGGMSIHDRCGEAIRIRCSTANESGSCENKARYRLEKIEEAIFLRLRAQLDRPDYLKEFVRVYAEERRRLTETARRDRARLERAAADSRARYMRLVDMMARGLIEGEEADAQVLQAKQAAEIARSELEIASSEDNVVELHPQATAAYTRAIADLSAALQRGDGTFDATSVEALRRIITEITVHPKDEAGDVLVEVRGNMERLLGIGQQIVGGPMVARGGLEPPTPREGHHHHHH	not soluble
MGSDKIHHHHHHMSKNNNPVEQLLKEKPYILLDGALATELERHGRNLDDPLWSARVLLEEPEQIHRVHANYFKIGADCAITSSYQASVAGFSSRGIKEEEAIELMKQTVYLAQQARAETGPAADHALIAGSIGPYGAYLSDGSEYIGHYGVDDAQLEAFHRPRLEALIAAGADVLAFETIPSLQEAKMLFRLLEEFPEQSAWLAFSLRDATHISEGTPLSECIEALGDHPQLAAIGANCFPASIATEFITTLKQLTDVPIIVYPNSGEQYDPVSKTWSGETVRTAFEDIAPEWYAAGARLIGGCCRTTPEQIGEIRKIVHAQ	not soluble
MQIALAPMEGLVDEILRDVLTRVGGIDWCVTEFIRITDRLLPATAFHKLAPELRDGSRTRAGTPMRVQLLGSDPACLADNAAFACELGAPVIDLNFGCPAKTVNRSRGGAVLLKEPELMHDIVAAVRRAVPSEIAVTSKMRLGYDSPDGALDCARALADGGSAHVVVHARTKVDGYRPPAHWEWVARVAEAVRVPVFANGEVWTLDDYLRCREVSGVEDIMLGRGLVSRPGLARQIAAWRDGGEIREMPWSELLPLLRDFWLQARRKLAPRYAPGRLKQWLGMLTRTYPEAVELFARIRRESDCETIDR	not soluble
EHEKGQKLIKTMDQEIDEVAKIGKTIKKPKTVLFEVAALPDIYSFGNGTFLNEMIETIGAKNVLANEKGWLPVTEEAAIAAKPEVILTNVNYMKDPAKEILARKNWESVPAVQNKEVFEIDNMSSSLPNNHITKALKQMAKAVYPEEYKDLKDE	not soluble
MGSDKIHHHHHHMKVLVAMDEFHGIISSYQANRYVEEAVASQIETADVVQVPLFNGRHELLDSVFLWQSGQKYRIPVHDADMNEVEGVYGQTDTGMTVIEGNLFLKGKKPIVERTSYGLGEMIKHALDNDAKHVVISLGGIDSFDAGAGMLQALGAQFYDDEGRVVDMRQGAGVIKYIRRMDMSNLHPKMETARIQVMSDFSSRLYGKQSEIMQTYDAHQLNHNQAAEIDNLIWYFSELFKSELKIAIGPVERGGAGGGIAAVLNGLYQAEILTSHALVDQLTHLENLVEQADLIIFGEGLNENDQLLETTTLRIAELCHKHQKVAIAICATAEKFDLFESQGVTAMFNTFIDMPETYTDFKMGLQIRHYTVQSLKLLKTHFNVEV	not soluble
MKAVDQAPKKKSHERKRKEKRVHTGNGTAKKHHKRKSRSKSKNKPKNGLSCCRKKKKKSKKSKSKVTKKQPKKKVIKPLAPVPNEQLGEVVLVKNVKLPETPQKPENDTPVKDGLKPPRTTNSVEKINLSKESFNLSNEKIASDNGTEEKMEKKNVDSPADIQDGLKGKSKQKSEEKVHQKAKDDAKRGDECNKFKISDEKLTKWKLVAQETLKDDANIAVNEFEKVSGYLPPHISKNHFVSNMDKNRFVDVICMDHSRVKLTDSSYIHANWVDLNSSKKAILTQLPLSHTASDFWQMIIDQKIKCVLLIMTDGEFNKFGGNSVFPQNQDFLKFEDRFIRVGEFKQVELGKGWNLKVLSVSNGTYKTFIHVHHYKNWPHGSIPSDVKQIWQVQSYLRKYTDGHPPVYMSMSGCGRAGTFALFETAHMSLHNEQPSLNMVKCLENVRNGRLHSVQNLSQFSVVYTLIAEHVLGNGIGKKDVEEQENSIDNILRQLTIQ	not soluble
MIFRQIHEEGLAQMSYLLGCAATGEALVVDPRRDVDVYLELAQSLGLRITAIAETHIHADYLSGARELARATGATLYLSDEGDENWKYKGLEGFPHVLLKDGDEFKVGNIRVRAVHTPGHTPEHLSFLVADGAVTDEPLLFLTGDFVFVGDVGRPDLLEEAAGIKGTAEPGARRMFRSLKEKFLTLPDHVQVWPGHGAGSACGKALGALPATTVGYERRHAWWAEYLERDDEEGFVKALLQGQPEAPTYFKEMKRLNRDGMAILGGLPHPGRLTPAQFERWLREGAILVDTRDKFAFAGGHIPGSINIPAGKNFSTWAGWLLPYDRPLVLLARPEEVEALTRALVRIGLDEVVGYIPGLEGYAQGELETVPQVTAKEAKELWEKGKAFVLDVRGRDEYLAGHIPGAQNIHAGRVLAHLDRLPKDRPLIVHCVGGDRSSTAISALLAHGFRNALNLTGGIKAWREAGFPVVQGEELVQA	soluble
MGSDKIHHHHHHMMELLNVNNLKVEFHRVEGIVKAVDGISYKLNKGESLGIVGESGSGKSVSVLSLLRLINRNGRIVDGEAIFLGKDLLKLNKEELRNIRGKDISIIFQNPMTSLNPIIRVGIQVMEPIIWHRLMKNEEARERAIELLERVGIPESPKRFLNYPFQFSGGMRQRVMIAMALACHPKLLIADEPTTALDVTIQAQIMELLQELKEEYGMSVIFITHDLSVATNFCDRIITMYAGKIVEEAPVEEILKTPLHPYTKGLLNSTLEIGSRGKKLVPIPGNPPNPTKHPSGCKFHPRCSFAMEICQREEPPLVNISENHRVACHLIKGESK	not soluble
MSLDIMITHKKIYSSLLNTKSRLNFKDTVQSGQSFRWNLNETLKSYYSSVIYNSIIFICEINSEMIEVLCTDQELSGKPINEFLKHLFSLDFQEETVFSSRFQQEFPEVWNLVQSYRSVRVMRQDPFEIMVTFMCAQGIGMHLIRRQVSMIAERYGQKIMLELPEGNLTFHSFPPPQALASADPNELAVCTNNNRIRAANIIAMARSFESGKLALACVDSGKCDLETLRETLCVHSGIGLKIADCIALFGLGRFDAFPIDTHVKQYLWEWFGIEEARHSLTEKNYRILQEKARAILGAEYAGYAGHILFHCWRKEVKKMKAEGHHHHHH	soluble
MALTCTDMSDAVAGSDAEGLTADAIVVGAGLAGLVAACELADRGLRVLILDQENRANVGGQAFWSFGGLFLVNSPEQRRLGIRDSHELALQDWLGTAAFDRPEDYWPEQWAHAYVDFAAGEKRSWLRARGLKIFRWWAGPSVVVTTRRGTATRCPVSTSPGVLGRLWSTYSCVSCVIAPRCALRTATRSTNLEHHHHHH	not soluble
MSASFDRYVSFQHCDWEGRSERVMQRLQRHVEAAENPFWAYFAQKRAELRDKQGLDDLRILHNYLPTLRELLEDNGDLETLEMLEDLEANLM	not soluble
MLIKLTGGTVYDPANGIDGQVRNLFIRDGRIVHSLNGATPDQEYDLRGKVVMAGAIDMHTHIGGGKVTIARNLLPEDHRADPEPRRGLMRAGCGHAAPSTLTTGYRYAEMGYTAGFEPAVLPINARQAHMEMADVPLLDVGGYVMLGSDDFFLRLLSAGSDQKLINDYVAWTIRSAKAIGIKVVNPGGISAFKFNQRMLDLDEKHVYYGVTPRQILKSLARAVHELGVPHPLHVHGCNLGVPGNVETTLNTISGIEGLPMHLTHIQFHSYGVEGDRKFSSGAARIAEAINANKNITIDVGQILFGQTVTASGDSMRQHANAGHAHPDKWVCMDIECDAGCGVVPFKYRDKNFVNALQWCIGLETFLLIDDPWRVFLTTDHPNGAPFTTYPHLIRLLMDKSFRNDMLATINPEAAALSTLGSIDREYSLYEIAIMTRAGAARLLGLTDRGHLGAGAAADITVYTDQADKEKMFTRPDYVFKDGELVVRNGEVVKVVWGNLHTVQPEFDNGIEARLRDYFDRYHTMKLDNFVINDWEIEGDGRSKILVHPCHQGTRSLEHHHHHH	not soluble
SLVKSTSCTTIDFMNMSQLTERTFTSSESLSSLSLFLSLARGQCRPGKFWHRRSFRQKFLLRSLIMPRLSVEWMNELSHWPNLNVLLTRQPRLPVRLHRPYLAANLSRKQLLEALRYHYALLRGCMSAEEFSLYLNTPGLQLAKLEGKNGEQFTLELTMMISMDKEGDSTILFRNSEGIPLAEITFTLCEYQGKRTMFIGGLQGAKWEIPHQEIQNATKACHGLFPKRLVMEAACLFAQRLQVEQIIAVSNETHIYRSLRYRDKEGKIHADYNAFWESVGGVCDAERHYRLPAQIARKEIAEIASKKRAEYRRRYEMLDAIQPQMATMFRG	not soluble
MKRVAAVIEYDGSNFFGYQGQPDVRTVQGVIEDALERIFKQRIYTQAAGRTDTGVHANGQLIAFNCPNDRMTTEDIRNAMNANLPDDVYVKEVFEVPVNFHPRFDVTKRIYHYFILTSRQKNVFLRKYVWWFPYELDLDAMRKAVKYLEGTHDFTSFKTGSDERDPVRTIYRIRILRLKNDLVLIRVEGRSFLRRMVRNIVAALVKVGLKQWEPEKMKEVLEARDRSAAAGTAPAHGLYFYKVLF	soluble
MEELFCIGCGIQIQTEDKEKAGFTPAAALKKGMETGELYCQRCFRLRHYNEITDVHITDDEFLRLLHEVGDSDALVVNVIDIFDFNGSIIPGLSRFISGNDVLLVGNKKDILPKSVKDGKVTQWLTERAHEEGLRPLDVMLTSAQNKYAIKDLIGRINELRNGRDVYVVGVTNVGKSTLINAIIQEITGNKDVITTSRFPGTTLDKIEIPLDDGTFIFDTPGIIHRHQMAHYLSPKELKIVSPKKEIKPKTYQLNPEQTLFLGGLARFDFINGERQGFTAFFDNQLELHRTKLAGADAFYDKHVGTLLTPPDKKELTAFPKLVRHEFTIDQKMDIVFSGLGWIRVNGQKDSKAIVAAWAPEGVAVIVRKAII	soluble
